According to patent US20120121507A1 (NATIONAL RESEARCH COUNCIL OF CANADA, published 2012):
Each block holds one binder with its values, some of them ahead of it.

How the values were obtained:
[1] = biological target: T1, recombinant human clusterin (human, UniProt P10909 23-449); assay: SPR, rhCLU flowed over immobilized P3375, global fit
T1 construct: also called rhCLU; rh-clusterin
Experimental: (§1) Protein-peptide interactions were followed using a BIAcore 3000 instrument (Biosensor AB, Uppsala, Sweden). All binding experiments were carried out at 25° C. under a continuous flow of the HBS-EP buffer (20 mM HEPES, 150 mM NaCl, 3.4 mM EDTA and 0.05% Tween-200) at pH 7.4 over the sensor surface at a flow rate of 20 μL/min. Different concentrations of rh-clusterin in the HBS-EP buffer were injected over the peptide-derivatized sensor chips. Dissociation was monitored for up to 300 s post-injection. The surfaces were fully regenerated by 15 s injection of an HBS-EP buffer solution containing 5 mM NaOH. […] Reference responses from control flow cells, containing unmodified dextran surfaces, were subtracted from peptide-containing flow cells, for each analyte injection using the BiaEvaluation software version 3.0 (Biacore AB, Uppsala, Sweden).
(§2) The resulting sensorgrams were used for kinetic rate determination through global fitting of the experimental data to a simple 1:1 Langmuir binding model. […] Affinity data (KD) from the binding studies were obtained by plotting the response in RU at the steady state, Req, versus the concentration of clusterin, C, and by fitting these curves to a one-site binding model, Req=C*xRmax/(C+KD) where Rmax is the value in RU at saturation and Req is the observed optical change in RU at each given C. […]

[2] = biological target: T1, recombinant human clusterin; assay: SPR (BIAcore 3000), rhCLU 2 nM-1.1 µM over immobilized P3375 (1200 RU), global fit, 1:1 Langmuir
Experimental: as §1, §2

[3] = biological target: T1, recombinant human clusterin; assay: SPR (BIAcore 3000), rhCLU over immobilized P3375 (1200 RU), kinetic global fit, 1:1 Langmuir
Experimental: as §1, §2

[4] = biological target: T1, recombinant human clusterin; assay: SPR, rhCLU flowed over immobilized P3378R
Experimental: as §1
This control peptide has the same amino acid content as P3378 but with a randomized sequence ([…]—SEQ ID NO:6). A lack of binding between rhCLU and this control peptide is evidenced by the linear nature of the Scatchard plot (inset; the response at equilibrium plotted against the concentration of rhCLU).

[5] = biological target: T1, recombinant human clusterin; assay: SPR, rh-clusterin flowed over immobilized P3375R, response against the clusterin concentration [right panel]
Experimental: as §1
The sequence dependence of the clusterin-peptide interactions was investigated using SPR biosensor analysis and peptides with scrambled sequences. Immobilization of the peptides on the sensor chips and the SPR experiments were conducted as described in Example 4.

[6] = biological target: T1, recombinant human clusterin; assay: SPR, rh-clusterin preincubated with mAb 16B5 (ratios of 1:1.7), flowed over immobilized P3378; rh-clusterin preincubated with mAb 16B5 (ratio 1:1.7)
Experimental: Different concentrations of rh-clusterin in the HBS-EP buffer were injected over the peptide-derivatized sensor chips. Dissociation was monitored for up to 300 s post-injection. The surfaces were fully regenerated by 15 s injection of an HBS-EP buffer solution containing 5 mM NaOH. […] Reference responses from control flow cells, containing unmodified dextran surfaces, were subtracted from peptide-containing flow cells, for each analyte injection using the BiaEvaluation software version 3.0 (Biacore AB, Uppsala, Sweden).
The question of whether an EMT-blocking anti-clusterin monoclonal antibody (mAb) 16B5 and P3378 have overlapping or independent binding sites on clusterin was investigated using SPR biosensor analysis. Several mAbs that interact with clusterin have been isolated; five of these mAbs, including 16B5, interact with an epitope on clusterin that is important for the EMT-promoting action of clusterin. Accordingly, these anti-clusterin mAbs inhibit EMT in cell culture, and tumor metastasis in animal models (O'Connor-McCourt et al, WO 2007/030930). Since clusterin-binding peptides can be used to non-invasively image clusterin-expressing tumors (primary tumors and metastases) in vivo, it is important to determine whether treatment with anti-clusterin mAbs may block peptide binding to the clusterin target and therefore compromise the ability of the peptides to image the tumor. […]

[7] = biological target: T1, recombinant human clusterin; assay: SPR (BIAcore 3000), rhCLU 5.5 nM-1.4 µM over immobilized P3378 (500 RU), global fit, 1:1 Langmuir
Experimental: as §1, §2

[8] = biological target: T1, recombinant human clusterin; assay: SPR (BIAcore 3000), rhCLU over immobilized P3378 (500 RU), kinetic global fit, 1:1 Langmuir
Experimental: as §1, §2

[9] = biological target: T1, recombinant human clusterin; assay: SPR, rh-clusterin 0-1.2 µM over immobilized P3378, no antibody; no antibody; rh-clusterin alone over immobilized P3378
Experimental: as §1, with “All” for “Protein-peptide interactions were followed using a BIAcore 3000 instrument (Biosensor AB, Uppsala, Sweden). All”
(§3) The question of whether an EMT-blocking anti-clusterin monoclonal antibody (mAb) 16B5 and P3378 have overlapping or independent binding sites on clusterin was investigated using SPR biosensor analysis. Several mAbs that interact with clusterin have been isolated; five of these mAbs, including 16B5, interact with an epitope on clusterin that is important for the EMT-promoting action of clusterin. Accordingly, these anti-clusterin mAbs inhibit EMT in cell culture, and tumor metastasis in animal models (O'Connor-McCourt et al, WO 2007/030930). […]

[10] = biological target: T1, recombinant human clusterin; assay: SPR, rh-clusterin alone flowed over immobilized P3378, fit of the response against the clusterin concentration [inset]
Experimental: as §1, with “All” for “Protein-peptide interactions were followed using a BIAcore 3000 instrument (Biosensor AB, Uppsala, Sweden). All”
as §3

[11] = biological target: T1, recombinant human clusterin; assay: SPR, rhCLU flowed over immobilized P3376, fit of the response against the clusterin concentration [inset]
Experimental: as §1, §2

[12] = biological target: T1, recombinant human clusterin; assay: SPR, rhCLU 0 nM to 1.4 µM over immobilized P3376 (150 RU), response at equilibrium, one-to-one binding model
Experimental: as §1, §2

T1 sequence (P10909 23-449 limits assumed): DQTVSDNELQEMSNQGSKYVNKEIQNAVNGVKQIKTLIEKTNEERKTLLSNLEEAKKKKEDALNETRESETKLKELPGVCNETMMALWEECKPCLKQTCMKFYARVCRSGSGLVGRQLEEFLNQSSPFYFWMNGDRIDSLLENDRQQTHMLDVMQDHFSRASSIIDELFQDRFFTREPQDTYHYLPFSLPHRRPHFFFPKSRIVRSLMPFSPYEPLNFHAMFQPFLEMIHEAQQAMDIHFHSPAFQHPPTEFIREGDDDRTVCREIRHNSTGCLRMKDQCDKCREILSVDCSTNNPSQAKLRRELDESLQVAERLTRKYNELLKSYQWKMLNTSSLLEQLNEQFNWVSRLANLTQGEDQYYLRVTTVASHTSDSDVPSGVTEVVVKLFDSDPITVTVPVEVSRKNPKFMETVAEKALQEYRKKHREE

B2: P3378R, randomized-sequence control peptide of P3378 (PYLHQSPHWKPSSGSGC) (peptide)
peptide: PYLHQSPHWKPSSGSGC
notes: Immobilised on the SPR chip; also called scrambled control peptide
binding result [4]: no binding

B3: P3378 synthetic peptide (HPLSKHPYWSQP with C-terminal SGSGC extension) (peptide)
peptide: HPLSKHPYWSQPSGSGC
notes: Synthesised by Fmoc chemistry; In SPR it was immobilised on a CM5 chip by a thioether bond from the C-terminal Cys to maleimide; In STD-NMR it was free in solution
Kd [6]: 1100 nM | koff [7]: 0.0052 s⁻¹ | kon [7]: 17200 M⁻¹ s⁻¹ | Kd [8]: 300 nM | Kd [9]: 520 nM | Kd [10]: 514 nM

B4: P3376 synthetic peptide (SHALPLTWSTAA with C-terminal SGSGC extension) (peptide)
peptide: SHALPLTWSTAASGSGC
notes: In SPR it was immobilised through the C-terminal Cys (thioether); In STD-NMR it was free in solution
Kd [11]: 342 nM | Kd [12]: 340 nM

Next, values leading:

koff [1]: 0.00603 s⁻¹ | koff [2]: 0.006 s⁻¹ | kon [2]: 11200 M⁻¹ s⁻¹ | Kd [3]: 540 nM
B1: P3375 synthetic peptide (NTYWSQLLHFQT with C-terminal SGSGC extension) (peptide)
peptide: NTYWSQLLHFQTSGSGC
notes: as for B4

EC50 (read off the curve) [5]: ~200 nM
Binder: LSLYHTNTQFWQSGSGC (Immobilised on the SPR chip) [P3375R, randomized version of P3375 (LSLYHTNTQFWQSGSGC)]
